This passage reports Relative EC50 vs 502, Binding (FP) results from patent publication US20200277339A1.

This assay has as its target recombinant purified fragment of TLR5 ectodomain of fish origin (fish). Briefly: competition fluorescence polarization, cell-free. For orientation: Polarisation of emitted light reports the rotation of a fluorescent probe.

As to CBLB502 (ligand), the Relative EC50 vs 502, Binding (FP) was 1 fold vs 502.
